# Data reported in patent US20200268901A1 (Bristol-Myers Squibb, published 2020).
# Numbering of substitutions follows the chain as printed. “And” between values parts separate entries of the source, which are not always exact repeats. Equal values may be shown once. Read-outs that look alike come from different tables or passages of the source.
# T1: hCD73-his (full length extracellular domain of human CD73, residues 26-546, C-terminal polyhistidine tag) (human, UniProt P21589 26-546)
# T1 construct: range 26-546; not shown: C-terminal polyhistidine tag
# T1 sequence (looked up): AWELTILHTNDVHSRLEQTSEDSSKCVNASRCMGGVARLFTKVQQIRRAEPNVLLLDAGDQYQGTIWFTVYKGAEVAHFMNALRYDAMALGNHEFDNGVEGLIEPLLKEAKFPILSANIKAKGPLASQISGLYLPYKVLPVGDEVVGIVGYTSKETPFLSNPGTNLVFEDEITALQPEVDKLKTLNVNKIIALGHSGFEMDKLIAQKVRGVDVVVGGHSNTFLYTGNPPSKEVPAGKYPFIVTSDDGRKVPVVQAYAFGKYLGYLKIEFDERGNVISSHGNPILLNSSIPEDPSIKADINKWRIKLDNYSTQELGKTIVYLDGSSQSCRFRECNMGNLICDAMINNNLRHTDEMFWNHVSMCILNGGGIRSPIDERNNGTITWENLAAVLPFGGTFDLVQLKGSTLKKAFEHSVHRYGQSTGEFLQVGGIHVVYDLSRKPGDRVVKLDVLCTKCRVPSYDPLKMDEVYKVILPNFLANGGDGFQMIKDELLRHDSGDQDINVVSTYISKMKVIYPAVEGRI
# T2: human CD73 on Calu6 cells (human, UniProt P21589 27-549)
# T2 sequence (looked up): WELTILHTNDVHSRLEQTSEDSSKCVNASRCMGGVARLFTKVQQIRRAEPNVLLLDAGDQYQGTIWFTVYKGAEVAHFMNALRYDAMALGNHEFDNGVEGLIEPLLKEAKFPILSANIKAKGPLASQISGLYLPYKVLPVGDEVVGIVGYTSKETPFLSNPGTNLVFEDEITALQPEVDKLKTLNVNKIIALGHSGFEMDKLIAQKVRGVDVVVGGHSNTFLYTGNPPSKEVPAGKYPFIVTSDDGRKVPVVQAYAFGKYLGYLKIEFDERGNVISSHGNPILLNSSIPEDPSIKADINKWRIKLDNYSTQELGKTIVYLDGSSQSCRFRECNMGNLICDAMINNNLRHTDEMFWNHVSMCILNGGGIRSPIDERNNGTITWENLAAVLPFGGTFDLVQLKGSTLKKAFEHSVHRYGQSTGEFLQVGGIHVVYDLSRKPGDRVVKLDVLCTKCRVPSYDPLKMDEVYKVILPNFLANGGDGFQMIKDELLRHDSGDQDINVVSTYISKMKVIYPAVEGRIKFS
# B1: CD73.4-IgG2.3G1-KH (antibody)
# heavy: QVQLVESGGGVVQPGRSLRLSCAASGFTFSNYGMHWVRQAPGKGLEWVAVILYDGSNKYYPDSVKGRFTISRDNSKNTLYLQMNSLRAEDTAVYYCARGGSSWYPDSFDIWGQGTMVTVSSASTKGPSVFPLAPCSRSTSESTAALGCLVKDYFPEPVTVSWNSGALTSGVHTFPAVLQSSGLYSLSSVVTVPSSNFGTQTYTCNVDHKPSNTKVDKTVERKSCVECPPCPAPPVAGPSVFLFPPKPKDTLMISRTPEVTCVVVDVSHEDPEVKFNWYVDGVEVHNAKTKPREEQYNSTYRVVSVLTVLHQDWLNGKEYKCKVSNKALPAPIEKTISKAKGQPREPQVYTLPPSREEMTKNQVSLTCLVKGFYPSDIAVEWESNGQPENNYKTTPPVLDSDGSFFLYSKLTVDKSRWQQGNVFSCSVMHEALHNHYTQKSLSLSPGK
# light: not shown
# B2: CD73.4-IgG2-C219S (antibody)
# heavy: QVQLVESGGGVVQPGRSLRLSCAASGFTFSNYGMHWVRQAPGKGLEWVAVILYDGSNKYYPDSVKGRFTISRDNSKNTLYLQMNSLRAEDTAVYYCARGGSSWYPDSFDIWGQGTMVTVSSASTKGPSVFPLAPCSRSTSESTAALGCLVKDYFPEPVTVSWNSGALTSGVHTFPAVLQSSGLYSLSSVVTVPSSNFGTQTYTCNVDHKPSNTKVDKTVERKSCVECPPCPAPPVAGPSVFLFPPKPKDTLMISRTPEVTCVVVDVSHEDPEVQFNWYVDGVEVHNAKTKPREEQFNSTFRVVSVLTVVHQDWLNGKEYKCKVSNKGLPAPIEKTISKTKGQPREPQVYTLPPSREEMTKNQVSLTCLVKGFYPSDIAVEWESNGQPENNYKTTPPMLDSDGSFFLYSKLTVDKSRWQQGNVFSCSVMHEALHNHYTQKSLSLSPG
# light: not shown
# notes: anti-CD73; also called CD73.4-IgG2.3; CD73.4-IgG2CS
# B3: CD73.4-IgG2.3-plusTHT (antibody)
# heavy: QVQLVESGGGVVQPGRSLRLSCAASGFTFSNYGMHWVRQAPGKGLEWVAVILYDGSNKYYPDSVKGRFTISRDNSKNTLYLQMNSLRAEDTAVYYCARGGSSWYPDSFDIWGQGTMVTVSSASTKGPSVFPLAPCSRSTSESTAALGCLVKDYFPEPVTVSWNSGALTSGVHTFPAVLQSSGLYSLSSVVTVPSSNFGTQTYTCNVDHKPSNTKVDKTVERKSCVETHTCPPCPAPPVAGPSVFLFPPKPKDTLMISRTPEVTCVVVDVSHEDPEVQFNWYVDGVEVHNAKTKPREEQFNSTFRVVSVLTVVHQDWLNGKEYKCKVSNKGLPAPIEKTISKTKGQPREPQVYTLPPSREEMTKNQVSLTCLVKGFYPSDIAVEWESNGQPENNYKTTPPMLDSDGSFFLYSKLTVDKSRWQQGNVFSCSVMHEALHNHYTQKSLSLSPGK
# light: not shown
# B4: CD73.4-IgG2.3-plusGGG (antibody)
# heavy: B3 heavy with T227G, H228G, T229G
# light: not shown
# How the values were obtained:
# [1] = target: T1, hCD73-his (full length extracellular …); test: SEC, 5.5 uM each; peak 1: complexes larger than 4:4
# Protocol: (§1) The oligomeric state of CD73/antibody complexes were examined by size-exclusion chromatography coupled to an in-line multi-angle light scattering detector (SEC-MALS). Isocratic separations were performed on a Shodex PROTEIN KW-803 column connected to an Prominence Shimadzu UFLC in buffer containing 200 mM K₂HPO₄, 150 mM NaCl, pH 6.8, containing 0.02% Na azide (0.1 μm filtered) running at 0.5 mL/min. Samples were injected onto the column using a SIL-20AC Prominence Shimadzu autosampler, and data were obtained from three online detectors connected in series: a Prominence SPD-20AD diode array UV/vis spectrophotometer followed by a Wyatt miniDAWN™ TREOS Multi-Angle Light Scattering Detector then a Wyatt Optilab T-rEX Refractive Index Detector. Data were collected and analyzed using Astra (Wyatt) and Labsolutions (Shimadzu) software.
# (§2) CD73.4 antibodies having the heavy chain constant regions set forth in Table 14 were also tested for formation of high molecular weight complexes by SEC-MALS and DLS experiments, as described in Example 3.
# [2] = target: T1, hCD73-his (full length extracellular …); test: SEC, 5.5 uM each; peak 2: about 2:2 complexes
# Protocol: as §1, §2
# [3] = target: T2, human CD73 on Calu6 cells; test: cell-based or functional assay
# [4] = target: T2, human CD73 on Calu6 cells; test: cell-based or functional assay; remark: listed apart in the source
# [5] = target: T1, hCD73-his (full length extracellular …); test: SEC, 5.5 uM each; peak 3: about 1:1 complexes
# Protocol: as §1, §2
# [6] = target: T2, human CD73 on Calu6 cells; test: cell-based or functional assay; remark: listed apart in the source
# [7] = target: T1, hCD73-his (full length extracellular …); test: SEC, 5.5 uM each; peak 4: free mAb
# Protocol: as §1, with “Isocratic” for “The oligomeric state of CD73/antibody complexes were examined by size-exclusion chromatography coupled to an in-line multi-angle light scattering detector (SEC-MALS). Isocratic”
# as §2
Binder,UV % Peak1 (<12.9 min) [1] [%],UV % Peak2 (12.9-15.1 min) [2] [%],"T1/2 (hr) of CD73 internalization, Calu6 cells [3]","T1/2 (hr) of CD73 internalization, NCI-H292 cells [3]","Ymax (%) of CD73 internalization, Calu6 cells [3] [%]","Ymax (%) of CD73 internalization, NCI-H292 cells [3] [%]","T1/2 (hr) of CD73 internalization, Calu6 cells [4] [h]","T1/2 (hr) of CD73 internalization, NCI-H292 cells [4] [h]","Ymax (%) of CD73 internalization, Calu6 cells [4] [%]","Ymax (%) of CD73 internalization, NCI-H292 cells [4] [%]",UV % Peak3 (15.1-16.7 min) [5] [%],"% internalization, Calu6 cells [6] [%]","% internalization, H228 cells [6] [%]","% internalization, H2030 cells [6] [%]","% internalization, HCC15 cells [6] [%]","T1/2 min of internalization, Calu6 cells [6] [min]","T1/2 min of internalization, H228 cells [6] [min]","T1/2 min of internalization, H2030 cells [6] [min]","T1/2 min of internalization, HCC15 cells [6] [min]",UV % Peak4 (16.7-19.3 min) [7] [%]
B1,34.9,23.4,0.396 h,0.28 h,81.6,91.6,,,,,,,,,,,,,,
B2,37,,0.372 h and 0.364 h,0.287 h and 0.284 h,,,0.6,0.277,75.6,78.4,7.7,88,94,89,94,6.5,13.8,3.7,3.1,28.6
B3,30.6,,0.355 h,0.293 h,81.2,91.4,,,,,,,,,,,,,,33.7
B4,30,23.9,0.336 h,0.271 h,81.7,91.6,,,,,,,,,,,,,,34.9
